Experimental data taken from US20200231670A1 (AGENSYS, published 2020).

Experiments:
[1] = biological target: T1, recombinant extracellular domain of human Nectin-4 protein (fragment aa 31-346) (human, UniProt Q96NY8 31-346); test: ELISA
T1 construct: Made in E. coli with a 6xHN tag from a pET vector; The primary screen used aa 31-346; The secondary screen also used a 293FT-made fragment, printed as aa 1-346 in one place and aa 1-348 in another, with a myc-his tag; also called 6xHN-tagged Nectin 4 (aa 31-346); Nectin-4 extracellular domain fragment (amino acid residues 31-346)
T1 sequence: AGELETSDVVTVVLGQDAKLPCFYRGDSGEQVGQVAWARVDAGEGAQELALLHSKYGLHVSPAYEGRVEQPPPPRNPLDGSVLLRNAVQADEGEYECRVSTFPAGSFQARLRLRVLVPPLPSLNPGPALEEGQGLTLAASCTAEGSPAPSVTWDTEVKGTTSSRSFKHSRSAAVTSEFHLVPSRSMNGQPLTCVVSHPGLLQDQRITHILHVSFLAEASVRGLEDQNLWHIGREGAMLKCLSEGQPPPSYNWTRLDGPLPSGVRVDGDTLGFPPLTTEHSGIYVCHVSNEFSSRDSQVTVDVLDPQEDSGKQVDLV

[2] = biological target: T2, human Nectin-4 (human, UniProt Q96NY8 32-510); test: IHC score, FFPE xenograft AG-OV35, 2.5 µg/mL
T2 construct: As expressed in human tumour xenograft tissues, human cell lines (T47D, NCI H322M) and Rat1(E) cells engineered to overexpress Nectin-4; Tested as FFPE sections (IHC) or as reduced lysates (Western blot); also called PVRL4; poliovirus receptor-related protein 4
T2 sequence: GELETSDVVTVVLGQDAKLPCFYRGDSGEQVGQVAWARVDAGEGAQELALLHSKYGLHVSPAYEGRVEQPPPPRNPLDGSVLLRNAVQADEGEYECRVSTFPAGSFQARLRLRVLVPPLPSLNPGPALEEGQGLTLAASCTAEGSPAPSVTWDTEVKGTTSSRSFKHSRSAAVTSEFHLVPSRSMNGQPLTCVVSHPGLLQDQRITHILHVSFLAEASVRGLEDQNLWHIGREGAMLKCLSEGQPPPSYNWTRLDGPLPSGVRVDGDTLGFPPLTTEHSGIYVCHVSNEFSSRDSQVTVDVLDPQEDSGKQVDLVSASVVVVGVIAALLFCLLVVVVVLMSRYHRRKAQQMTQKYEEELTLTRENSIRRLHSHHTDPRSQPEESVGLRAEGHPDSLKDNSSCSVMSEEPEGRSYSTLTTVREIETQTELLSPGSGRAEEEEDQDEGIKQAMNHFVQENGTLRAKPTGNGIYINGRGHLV
Method: (§1) IHC staining was performed according to the following exemplary protocols. Briefly, an indirect IHC technique was used to detect Nectin-4 in the IHC assay. The samples were fixed in 10% buffered neutral formalin, processed and embedded into paraffin wax, and prepared as 4 μm tissue sections. After deparaffinization and re-hydration, sections were treated for antigen retrieval. The antigen epitopes in Nectin-4 were retrieved, for example, by application of heat to the tissue sections in an aqueous medium, commonly referred to as a Heat-Induced Epitope Retrieval (HIER) procedure. […] The tissue sections bound with primary antibodies were washed and detected with an enzyme-labeled, e.g. peroxidase-labeled, secondary antibody. […] The stained tissue sections were then scanned, imaged, and evaluated with light microscopy, for example, using an Aperio ScanScope CS (Aperio, Vista, Calif.).
(§2) To assess the level of Nectin-4 expression in the tissue sections by the level of antibody staining, stained tissue sections were assessed, evaluated, categorized, and recorded into different categories or scores according to the intensity of the IHC staining and cancer cell positivity ratio. […] Lack of specific staining was recorded as negative (“0” or interchangeably with as “−”).

[3] = biological target: T3, Nectin-2 over-expressed by engineered Rat1(E) cells (UniProt Q92692 32-538, limits assumed); test: IHC, FFPE Rat1(E) cells expressing Nectin-2
T3 construct: whole, on cells; also called Rat1(E)-Nectin-2; Rat1(E) Nectin2
T3 sequence (looked up): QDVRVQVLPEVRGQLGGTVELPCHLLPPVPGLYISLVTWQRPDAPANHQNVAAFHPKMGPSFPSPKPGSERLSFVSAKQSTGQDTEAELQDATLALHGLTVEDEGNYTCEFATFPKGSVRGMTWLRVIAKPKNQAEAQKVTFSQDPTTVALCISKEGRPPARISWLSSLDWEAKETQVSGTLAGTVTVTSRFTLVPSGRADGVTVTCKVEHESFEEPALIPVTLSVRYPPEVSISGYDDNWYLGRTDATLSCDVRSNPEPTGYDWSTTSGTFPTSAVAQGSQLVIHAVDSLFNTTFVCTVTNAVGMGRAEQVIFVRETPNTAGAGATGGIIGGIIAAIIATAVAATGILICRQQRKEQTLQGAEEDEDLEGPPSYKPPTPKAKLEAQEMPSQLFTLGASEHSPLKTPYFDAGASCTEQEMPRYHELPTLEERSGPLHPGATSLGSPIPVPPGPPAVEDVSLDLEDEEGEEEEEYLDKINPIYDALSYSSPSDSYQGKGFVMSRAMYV
Method: as §1, §2

[4] = biological target: T4, Nectin-4 fragment V (amino acid residues 1-150 of human Nectin-4) (human, UniProt Q96NY8 32-150); test: Western blot of cell lysates (FIG. 13)
T4 construct: Expressed in transfected cells and tested as a reduced RIPA lysate on a Western blot; Any tag or membrane anchor of the construct is not described; also called V fragment/domain
T4 sequence: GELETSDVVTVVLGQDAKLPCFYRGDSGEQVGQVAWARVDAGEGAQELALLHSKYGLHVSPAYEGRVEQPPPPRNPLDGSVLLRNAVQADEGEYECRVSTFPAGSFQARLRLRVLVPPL
Method: The cells expressing various Nectin-4 fragments were cultured and lysed in RIPA buffer. […] A 1:10000 dilution of a-GAPDH antibody (Chicken pAb, Millipore) was used detect GAPDH as a loading control. Antibodies bound to the protein bands were then detected with either 1:5000 dilution of Goat-anti-Mouse antibody conjugated with IRDye 680 (Odyssey) or 1:5000 Donkey anti-a-Chicken conjugated with IRDye 800 (Odyssey) and visualized in Odyssey system.

[5] = biological target: T5, Nectin-1 over-expressed by engineered Rat1(E) cells (UniProt Q15223 31-517, limits assumed); test: IHC, FFPE Rat1(E) cells expressing Nectin-1
T5 construct: whole, on cells; also called Rat1(E)-Nectin-1; Rat1(E) Nectin1
T5 sequence (looked up): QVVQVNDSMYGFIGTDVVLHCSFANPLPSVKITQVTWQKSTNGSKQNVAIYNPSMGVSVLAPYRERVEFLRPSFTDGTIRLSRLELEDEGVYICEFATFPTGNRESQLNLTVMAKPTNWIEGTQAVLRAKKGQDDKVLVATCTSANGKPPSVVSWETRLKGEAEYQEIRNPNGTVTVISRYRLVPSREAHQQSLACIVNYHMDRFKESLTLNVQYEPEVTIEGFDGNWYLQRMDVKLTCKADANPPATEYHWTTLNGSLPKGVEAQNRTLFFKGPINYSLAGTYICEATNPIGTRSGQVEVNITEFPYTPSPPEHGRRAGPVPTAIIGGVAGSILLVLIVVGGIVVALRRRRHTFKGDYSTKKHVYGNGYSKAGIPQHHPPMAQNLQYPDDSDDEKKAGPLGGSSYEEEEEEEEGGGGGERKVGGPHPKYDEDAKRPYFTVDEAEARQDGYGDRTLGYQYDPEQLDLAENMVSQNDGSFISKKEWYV

- binding result [1]: binds
- binding result [2]: binds
- binding result [3]: no binding (tested: 2.5 µg/mL)
- binding result [4]: binds
- binding result [5]: no binding (tested: 2.5 µg/mL)
B1: M22-321b41.1 anti-Nectin-4 mouse monoclonal antibody (antibody, mouse IgG2a, kappa, V domains shown)
VH: QVQLQQSGAELARPGASVKLSCKASGYTFTTYWMQWVKQRPGQGLEWIGSIYPGDGDTRYTQKFKGKATLTADKSSSTAYIQLSTLASEDSAVYYCAREYYGLDYWGQGTTLTVSS
VL: DIVMTQAAFSNPVTLGTSASISCRSSKSLLHSNGITYLYWYLQKPGQSPQLLIYHMSNLASGVPDRFTSSGSGTDFTLRISRVEAEDVGVYYCAQNLELPFTFGGGTKLETKR
notes: Mouse IgG2a kappa from hybridoma M22-321b41.1 (ATCC PTA-124245), protein A purified; also called mAb M22-321b41.1; M22-321b1.1
